Results as given in patent US20190389958A1, “ANTI-CXCR4 ANTIBODIES” (MSM Protein Technologies, Inc., priority 2017, published 2019).

How the values were obtained:
hCCR3 = target: T1, hCCR3 (Homo sapiens, UniProt P51677); experiment: Specificity for CXCR4, flow cytometry on GPCR over-expressing cells (Example 6); format: binding; conditions: cell line hCCR3; test IgG at 100 nM
T1 construct: expressed in transfected cells
T1 sequence (P51677 1-355): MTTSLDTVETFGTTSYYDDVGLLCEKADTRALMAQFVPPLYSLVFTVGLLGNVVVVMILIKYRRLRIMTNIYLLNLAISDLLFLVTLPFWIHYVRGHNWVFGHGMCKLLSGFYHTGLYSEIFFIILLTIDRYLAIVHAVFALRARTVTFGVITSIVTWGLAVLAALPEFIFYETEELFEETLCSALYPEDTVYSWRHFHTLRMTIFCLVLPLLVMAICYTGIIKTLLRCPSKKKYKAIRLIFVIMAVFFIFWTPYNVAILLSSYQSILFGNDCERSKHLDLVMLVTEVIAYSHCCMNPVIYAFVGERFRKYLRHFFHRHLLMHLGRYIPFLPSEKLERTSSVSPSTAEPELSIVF
Method: (§1) Cells over-expressing different GPCRs other than CXCR4 and several lines transfected to over-express CXCR4 (R1610-hCXCR4, Cf2Th-hCXCR4 and CHO-hCXCR4) were compared. Cultures were incubated with a test IgG at 100 nM in FACS buffer for 40 min at 4° C. Thereafter, cells were washed twice, stained with anti-human-Fc antibody-PE conjugate (Jackson Immunoresearch Laboratories Inc., West Grove, Pa.), washed twice in FACS buffer and then transferred to FIX buffer. Fluorescence intensities were measured by GUAVA PCA-96 at 425V (in triplicate).
(§2) The expression of GPCRs other than CXCR4 was confirmed using commercially available antibodies (positive controls). For example, a commercial anti-CXCR1 antibody was used as a positive control for confirming the expression of CXCR1 on the CXCR1-transfected CHO cells.

RA1 cells = experiment: Antibody-dependent cell-mediated cytotoxicity (ADCC), LDH release (Example 10); format: cell-based, human; conditions: E:T ratio 20:1
Method: ADCC was measured with RA1 cells as the target cells (T) and using the CytoTox 96® Non-Radioactive Cytotoxicity Assay (Promega Corp., Fitchburg, Wis.)), which assay measures lactate dehydrogenase (LDH) release. A round-bottom 96-well culture plate was set up with the following control and experimental wells (100 microliter final volumes):
a. RA1 cells (for target cell spontaneous LDH release control) b. RA1 cells (for target cell maximum LDH release control) c. Culture medium (RPMI 1640 Medium (1X) without phenol red) used for volume correction control d. Culture medium (for culture medium background control) e. RA1 plus effector cells (E) (for target plus effector cell spontaneous LDH release control) f. Experimental wells with effector and target cells (10^5) with serial dilutions of each test IgG or without test IgG.
The plates were centrifuged at 1600 rpm for 2 minutes and incubated at 37° C. for 4 hours. One hour prior to supernatant harvest, 20 microliters of Lysis Solution (10×) were added to the conditions b) and c). The plates were centrifuged at 1600 rpm for 2 minutes, and 50 microliters of the supernatant from each well of the assay plates were transferred to corresponding wells of a flat-bottom 96-well enzymatic assay plate. Substrate Mix (50 microliters) was added to each well of the latter plate, and the plate (protected from light) was incubated for 30 minutes at room temperature. Finally, 50 microliters of Stop Solution were added to each well, and absorbance (OD values) was measured at 490 nm. Each condition was tested in triplicates.
Preliminary experiments had been conducted in order to determine the optimal E:T ratio. The data shown below were obtained at a 20:1 E:T ratio with 10^5 RA1 target cells. The effector cells used in this study were prepared as follows: human peripheral blood mononuclear cells (PBMCs) obtained from a healthy donor were isolated by means of density gradient centrifugation using Lymphocyte Separation Medium (ref. J15-004, Invitrogen Corp., Carlsbad, Calif.). PBMCs at 2×10^6 per mL were cultured for two days in RPMI 1640 with 10% FCS, penicillin/streptomycin and 100 units per mL of human recombinant IL-2 (obtained from Roussel-Uclaf) in a 37° C. humidified incubator (5% CO2).
ADCC percentages obtained at different concentrations of test IgGs were calculated with the formula % ADCC=(f−e)/(b−a)×100, i.e., % ADCC=(OD of Target+Effector cells +/−Test Mab −OD of Spontaneous Release of Target+Effector cells)/(OD Maximal Release Target cells −OD Spontaneous Release of Target cells)×100.

hCCR7 = target: T2, hCCR7 (Homo sapiens, UniProt P32248); experiment: Specificity for CXCR4, flow cytometry on GPCR over-expressing cells (Example 6); format: binding; conditions: cell line hCCR7; test IgG at 100 nM
T2 construct: expressed in transfected cells
T2 sequence (P32248 25-378): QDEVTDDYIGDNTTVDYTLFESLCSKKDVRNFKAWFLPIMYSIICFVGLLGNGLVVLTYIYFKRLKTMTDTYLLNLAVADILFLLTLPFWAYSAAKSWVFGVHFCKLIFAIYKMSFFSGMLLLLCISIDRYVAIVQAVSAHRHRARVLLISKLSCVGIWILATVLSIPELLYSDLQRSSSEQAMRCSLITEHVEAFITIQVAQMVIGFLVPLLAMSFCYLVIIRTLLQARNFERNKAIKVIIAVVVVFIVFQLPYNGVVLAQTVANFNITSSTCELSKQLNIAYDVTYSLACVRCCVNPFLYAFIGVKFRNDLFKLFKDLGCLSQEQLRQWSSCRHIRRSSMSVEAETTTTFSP
Method: as §1, §2

B1: V62.1-R108H-m47-m38: matured anti-CXCR4 antibody; LCVR SEQ ID NO 14, HCVR SEQ ID NO 18 (antibody, V domains shown)
VH: EVQLLESGGGLVQPGGSLRLSCAASGFTFSSYAMSWVRQAPGKGLEWVSAISGSGGTRYADSVKGRFTISRDNSKNTLYLQMNSLRAEDTAVYYCARQGKTRVYGYHWHGYGSTHALDYWGQGTLVTVSS
VL: EIVLTQSPGTLSLSPGERATLSCRASQSVSSSYLAWYQQKPGQAPRLLIYGASSRATGIPDRFSGSGSGTDFTLTISRLEPEDFAVYYCQQWSSDSVTFGQGTKVEIKRT
modifications: heavy chain variable region HCVR, variant 4; light chain variable region LCVR, variant 2
MFI (hCCR3): 40 | ADCC percentage (RA1 cells; 0.0001 μg/mL): 14% | ADCC percentage (RA1 cells; 0.001 μg/mL): 36% | ADCC percentage (RA1 cells; 0.01 μg/mL): 50% | ADCC percentage (RA1 cells; 0.1 μg/mL): 51% | ADCC percentage (RA1 cells; 1 μg/mL): 55%

B2: V62.1-R108H-m43-m38: matured anti-CXCR4 antibody; LCVR SEQ ID NO 14, HCVR SEQ ID NO 17 (antibody, V domains shown)
VH: EVQLLESGGGLVQPGGSLRLSCAASGFTFSSYAMSWVRQAPGKGLEWVSAISGSGGGSTRYADSVKGRFTISRDNSKNTLYLQMNSLRAEDTAVYYCARQGKTRVYGYHWHGYGSTHALDYWGQGTLVTVSS
VL: EIVLTQSPGTLSLSPGERATLSCRASQSVSSSYLAWYQQKPGQAPRLLIYGASSRATGIPDRFSGSGSGTDFTLTISRLEPEDFAVYYCQQWSSDSVTFGQGTKVEIKRT
modifications: heavy chain variable region HCVR, variant 3; light chain variable region LCVR, variant 2
ADCC percentage (RA1 cells; 0.0001 μg/mL): 8% | ADCC percentage (RA1 cells; 0.001 μg/mL): 19% | ADCC percentage (RA1 cells; 0.01 μg/mL): 40% | ADCC percentage (RA1 cells; 0.1 μg/mL): 42% | ADCC percentage (RA1 cells; 1 μg/mL): 54%

B3: V62.1-R108H-m80: matured anti-CXCR4 antibody; LCVR SEQ ID NO 13, HCVR SEQ ID NO 19 (antibody, V domains shown)
VH: EVQLLESGGGLVQPGGSLRLSCAASGFTISPYSITWVRQAPGKGLEWVSQINSYNGKTYYADSVKGRFTISRDNSKNTLYLQMNSLRAEDTAVYYCARQGKTRVYGYHWHGYGSTHALDYWGQGTLVTVSS
VL: EIVLTQSPGTLSLSPGERATLSCRASQSVSSSYLAWYQQKPGQAPRLLIYGASSRATGIPDRFSGSGSGTDFTLTISRLEPEDFAVYYCQQSDYSYPFTFGQGTKVEIKRT
modifications: heavy chain variable region HCVR, variant 5; light chain variable region LCVR, variant 1
MFI (hCCR7): 25 | ADCC percentage (RA1 cells; 0.0001 μg/mL): 9% | ADCC percentage (RA1 cells; 0.001 μg/mL): 16% | ADCC percentage (RA1 cells; 0.01 μg/mL): 45% | ADCC percentage (RA1 cells; 0.1 μg/mL): 59% | ADCC percentage (RA1 cells; 1 μg/mL): 55%
